Assay results taken from the supplement of paper PMC9170038.

System: MS2 coat protein
Assay: apparent KD of MS2 coat protein; designed switch direction (-1 OFF switch, 1 ON switch): -1; higher = weaker reporter binding
Outline: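 SNAP-549-labelled MS2 coat protein was titrated, doubling from 0.7 or 1.5 nM to 3 µM, over designed RNA switches transcribed on Illumina chips by stalled E. coli RNA polymerase. Runs were done without input, with 200 uM small-molecule ligand, or with an oligonucleotide input. Apparent KD is the per-design median over clusters of curve-fitted normalised fluorescence.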

[1] = Eterna round: R95, input ligand: microRNA oligo, concentration not stated
[2] = Eterna round: R95, input ligand: FMN 200 uM
[3] = Eterna round: R95, input ligand: none
[4] = input ligand: microRNA oligo, concentration not stated

Sequence: CGUGCGUAUGUGAGGAUAUGCUGGUCCUUGGAUCGGCAGAAGGCACAUGAGGAUCACCCAUGUGGUGUCGUACG [salish99_Bmod_ex4_080] (puzzle: Brourd's mod of Exclusion 4)
- apparent KD of MS2 coat protein [1]: 0.374 µM

Sequence: CGUGUGUAAGGAUAUUUUGCAAGGCGGUGGACCCGCCUAUUAGAGAAGGUACAUGAGGAUCACCCAUGUGAGCC [Eternabot (L2) Solution 74] (Eterna round: R97, puzzle: Exclusion 4)
- apparent KD of MS2 coat protein (input ligand: FMN 200 uM): 0.0582 µM
- apparent KD of MS2 coat protein (input ligand: none): 0.0423 µM

Sequence: CGUUAGUGAGGAUAUGGAAAUAGGUACAUGAGGAUCACCCAUGUUUGAAGGGAAAAGAGCCUAGAAGGCACUAACG [JR_Ex5_Sub055] (Eterna round: R97, puzzle: Exclusion 5)
- apparent KD of MS2 coat protein (input ligand: FMN 200 uM): 0.0235 µM
- apparent KD of MS2 coat protein (input ligand: none): 0.0352 µM

Sequence: CUAAUACAUCAGGAUAUGUGUCAUUAUAGCGACACAGAAGGGAUGACAUGAGGAUCACCCAUGUCAAAGGGUGA [eternacac ex6r4 sub22] (Eterna round: R97, puzzle: Exclusion 6)
- apparent KD of MS2 coat protein (input ligand: FMN 200 uM): 0.0854 µM
- apparent KD of MS2 coat protein (input ligand: none): 0.639 µM

Sequence: CUAAUGAUAGGAUAUACAGCGAGAGUCGACUCUGGUGCUCAACAUGAGGAUCACCCAUGUAGAAGGAUCAGACC [EX2 C.23] (Eterna round: R97, puzzle: Exclusion 2)
- apparent KD of MS2 coat protein (input ligand: FMN 200 uM): 0.0359 µM
- apparent KD of MS2 coat protein (input ligand: none): 0.0186 µM

Sequence: CUAAUUUGUGUGAGGAUAUGGCGACAGGAGACUAGCCAGAAGGUACAUGAGGAUCACCCAUGUAAGGUCCUCUC [Eternabot (L1) Solution 86] (Eterna round: R97, puzzle: Brourd's mod of Exclusion 4)
- apparent KD of MS2 coat protein (input ligand: FMN 200 uM): 0.0168 µM
- apparent KD of MS2 coat protein (input ligand: none): 0.0163 µM

Sequence: CUAGAUCUUCGGAUCUAGUACAUGAGGAUCACCCAUGUUACGAGCUGAUUUUCAUACAAGCUUUUUGCUCGUCUUAU [Sensor v3 - Turn-off variant 1 - 29] (puzzle: Sensor v3, turn-off variant 1)
- apparent KD of MS2 coat protein [2]: 0.0381 µM
- apparent KD of MS2 coat protein [1]: 0.297 µM
- apparent KD of MS2 coat protein [3]: 0.0413 µM

Sequence: CUAGCGAUUGUAGGAUAUCGGACUGUUUCAGUCUGAGAAGGACAUGAGGAUCACCCAUGUGAUGCUACGUGAGUAGCACGCUAG [JL ENG1 3.85] (Eterna round: R96, puzzle: Exclusion NG 1)
- apparent KD of MS2 coat protein (input ligand: FMN 200 uM): 0.0769 µM
- apparent KD of MS2 coat protein [4]: 0.02 µM
- apparent KD of MS2 coat protein (input ligand: none): 0.0305 µM

Sequence: CUAGUAUAUCAGGAUAUGAUAGCUUAUAGCAUAUCAGAAGGGAUUACAUGAGGAUCACCCAUGUGAAGGGAUGA [eternacac ex6r4 sub17] (Eterna round: R97, puzzle: Exclusion 6)
- apparent KD of MS2 coat protein (input ligand: FMN 200 uM): 0.331 µM
- apparent KD of MS2 coat protein (input ligand: none): 0.275 µM

Sequence: CUAGUCCGAGGAUAUAUUAAGUGAAACAUGAGGAUCACCCAUGUUAUUUAAUGGAAAUAAAUAGAAGGCGGACUAG [Mat - Exclusion 5 - JL mod - D56] (puzzle: Exclusion 5)
- apparent KD of MS2 coat protein [2]: 0.0272 µM
- apparent KD of MS2 coat protein [1]: 0.0346 µM
- apparent KD of MS2 coat protein [3]: 0.0516 µM

Sequence: CUAUUACGAGGAUAUGAUUUAAAUAACAUGAGGAUCACCCAUGUUUUUACGUUAUUUUAUUUAGAAGGCGUAUAGU [JR_E5_Sub029] (puzzle: Exclusion 5)
- apparent KD of MS2 coat protein [1]: 0.042 µM

Sequence: CUAUUACGAGGAUAUGAUUUAAAUAACAUGAGGAUCACCCAUGUUUUUACGUUAUUUUGUUUAGAAGGCGUAUUGU [JR_E5_Sub027] (puzzle: Exclusion 5)
- apparent KD of MS2 coat protein [1]: 0.0555 µM

Sequence: CUCAAGUGAGGAUAUAUACUUCCAUCAUUUGAGAUAGAAGUAUAGAAGGCACAUGAGGAUCACCCAUGUAUAAC [Lamaanan] (puzzle: Exclusion 4)
- apparent KD of MS2 coat protein [1]: 0.0992 µM

Sequence: CUCAUGUGAGGAUAUGUGAUCAACCUUCUGUAUAGAUGAUUACAGAAGGCACAUGAGGAUCACCCAUGUAGAUC [Ex4 - 3 - 22] (puzzle: Exclusion 4)
- apparent KD of MS2 coat protein [1]: 0.0916 µM

Sequence: CUCCUACAUGAGGAUCACCCAUGUCAGGAUAUCUCAGUGGCACCUAAAUUCGCCACCCAGAGAAGGGACGUGCA [Erralaorge] (puzzle: Exclusion 1)
- apparent KD of MS2 coat protein [1]: 0.0134 µM

Sequence: CUCCUCAUGGCGCCUAAACACAUGAGGAUCACCCAUGUACAGGCUUUUCGCCGUCUUAUAAUAAAACCGAGGAUGCG [Soislebice] (puzzle: Sensor v3, turn-off variant 1)
- apparent KD of MS2 coat protein [2]: 0.0456 µM
- apparent KD of MS2 coat protein [1]: 0.3 µM
- apparent KD of MS2 coat protein [3]: 0.0478 µM

Sequence: CUCCUCGUGGCGCCUAAACACAUGAGGAUCACCCAUGUACAGGCUUUUUGCCGUCUUAUAAUAAAACCGAGGAGGCG [Arce] (puzzle: Sensor v3, turn-off variant 1)
- apparent KD of MS2 coat protein [2]: 0.0137 µM
- apparent KD of MS2 coat protein [1]: 0.0221 µM
- apparent KD of MS2 coat protein [3]: 0.0159 µM

Sequence: CUCGAGUGAGGAUAUAUACUUCCAUCAUUUGAGAGAGAAGUAUAGAAGGCACAUGAGGAUCACCCAUGUAUAAA [Rierreis] (puzzle: Exclusion 4)
- apparent KD of MS2 coat protein [1]: 0.0413 µM

Sequence: CUCGUGCAGCUUUGCUGUACGAGUACAUGAGGAUCACCCAUGUAGGAUAUGGUACGCAAAGCGUGCCAGAAGGACGUGCGUUAG [Mat - Exclusion NG 3 - Mod of JL - D93] (Eterna round: R96, puzzle: Exclusion NG 3)
- apparent KD of MS2 coat protein (input ligand: FMN 200 uM): 0.0787 µM
- apparent KD of MS2 coat protein [4]: 0.0299 µM
- apparent KD of MS2 coat protein (input ligand: none): 0.0331 µM

Sequence: CUCGUGCAGCUUUGCUGUACGAGUACAUGAGGAUCACCCAUGUAGGAUAUGGUACGCUUUGCGUGCCAGAAGGACGUGCGUUAG [JL EXNG3 1.41] (Eterna round: R96, puzzle: Exclusion NG 3)
- apparent KD of MS2 coat protein (input ligand: FMN 200 uM): 0.0786 µM
- apparent KD of MS2 coat protein [4]: 0.0259 µM
- apparent KD of MS2 coat protein (input ligand: none): 0.0289 µM

Sequence: CUCGUGUGAGGAUAUCAACGUCAAGCGUGAGCGAGACGAGAUGAGAAGGUACAUGAGGAUCACCCAUGUGCUCA [Eternabot (Original) Solution 25] (Eterna round: R97, puzzle: Exclusion 4)
- apparent KD of MS2 coat protein (input ligand: FMN 200 uM): 0.0831 µM
- apparent KD of MS2 coat protein (input ligand: none): 0.02 µM

Sequence: CUCUGCACGCUGCGGUCCUACAUGAGGAUCACCCAUGUGGUCUGGUGGCGUGGGUCGCCGGACUUGGCUCGUCUUGG [salish99_S_TOV1_R5_047] (Eterna round: R97, puzzle: Sensor, turn-off variant 1)
- apparent KD of MS2 coat protein (input ligand: FMN 200 uM): 0.0154 µM
- apparent KD of MS2 coat protein (input ligand: none): 0.0158 µM

Sequence: CUCUUGUUAGGAUAUCAAACCGGCGGCGGAGCCGCCGGUAGUGAGAAGGGACAUGAGGAUCACCCAUGUAAGAA [Isarcedi] (puzzle: Exclusion 4)
- apparent KD of MS2 coat protein [1]: 0.0652 µM

Sequence: CUGAGAUGAGGAUAUACAUGAGGAUCACCCAUGUAAAGUAGCUUGCGUACAGGCAGAUGUAGAAGGCAUUUCGG [Mod of JL 4 - Jieux - Exclusion 3] (Eterna round: R97, puzzle: Exclusion 3)
- apparent KD of MS2 coat protein (input ligand: FMN 200 uM): 0.0447 µM
- apparent KD of MS2 coat protein (input ligand: none): 0.0253 µM

Sequence: CUGAGCAGACGGAGAUCCAACAUGAGGAUCACCCAUGUCUCAAAAGCUUUUUGCUCGUCUUACCCUCCUCUGCUCUC [Ticeisor] (puzzle: Sensor v3, turn-off variant 1)
- apparent KD of MS2 coat protein [2]: 0.0191 µM
- apparent KD of MS2 coat protein [1]: 0.0403 µM
- apparent KD of MS2 coat protein [3]: 0.0151 µM

Sequence: CUGAGCAGACGGAGAUCCAACAUGAGGAUCACCCAUGUCUCAAAAGCUUUUUGCUUGUCUUAUCCUCCUCUGUUCAC [Esqutian] (Eterna round: R96, puzzle: Sensor v3, turn-off variant 1)
- apparent KD of MS2 coat protein (input ligand: FMN 200 uM): 0.0136 µM
- apparent KD of MS2 coat protein [4]: 0.222 µM
- apparent KD of MS2 coat protein (input ligand: none): 0.0161 µM

Sequence: CUGAGCAGACGGAGAUCCAACAUGAGGAUCACCCAUGUCUCAAAAGCUUUUUGCUUGUCUUAUCCUCCUCUGUUCAC [Esqutian] (puzzle: Sensor v3, turn-off variant 1)
- apparent KD of MS2 coat protein [2]: 0.014 µM
- apparent KD of MS2 coat protein [1]: 0.39 µM
- apparent KD of MS2 coat protein [3]: 0.0123 µM

Sequence: CUGAGCAGACGGAGAUCCAACAUGAGGAUCACCCAUGUCUCAUAAGCUUUUUGCUCAUCUUAUUGUACCUUGGUGCA [Mat - Sensor v3 - turn-off var 1 - JL Mod - D21] (puzzle: Sensor v3, turn-off variant 1)
- apparent KD of MS2 coat protein [2]: 0.426 µM
- apparent KD of MS2 coat protein [1]: 0.0156 µM
- apparent KD of MS2 coat protein [3]: 0.29 µM

Sequence: CUGAGCAGACGGAGAUCCAACAUGAGGAUCACCCAUGUCUCAUAAGCUUUUUGUUCAUCUUAUUGUACCUUGGUGCU [JL ViennaUCT Edcesobi mod 4] (puzzle: Sensor v3, turn-off variant 1)
- apparent KD of MS2 coat protein [2]: 0.149 µM
- apparent KD of MS2 coat protein [1]: 0.0246 µM
- apparent KD of MS2 coat protein [3]: 0.252 µM

Sequence: CUGAGCUGAGGAUAUACAUGAGGAUCACCCAUGUGGGCCUGCGAGGUUACUUGCACAUGUAGAAGGCAGUUCGG [Extended Mod of JL - ex3-3.35 Brourd mod] (puzzle: Exclusion 3)
- apparent KD of MS2 coat protein [1]: 0.0744 µM

Sequence: CUGAGGUAGCGGUCCUAUGACAUGAGGAUCACCCAUGUACCUUGCUUUGAGCUUUAAGCUCGUCUUAUGAUUCUCGG [Mat - Sensor v3 - turn-off var 1 - JL Mod - D44] (puzzle: Sensor v3, turn-off variant 1)
- apparent KD of MS2 coat protein [2]: 0.504 µM
- apparent KD of MS2 coat protein [1]: 0.625 µM
- apparent KD of MS2 coat protein [3]: 0.861 µM

Sequence: CUGAUGUUAGGAUAUCAGGCGCCCGCCACUAGCAAGGCGCAUGAGAAGGGACAUGAGGAUCACCCAUGUAGUAA [Xexeonza] (puzzle: Exclusion 4)
- apparent KD of MS2 coat protein [1]: 0.0277 µM
